Data set [1] is described as follows: Self-aggregation by intrinsic naphthyl fluorescence (intensity decrease, excimer peak). It counts as physicochemical. To be noted: water, room temperature, excitation 280 nm.
Procedure: (§1) Self-organization of the peptide conjugates at the atomic level was further characterized also in solution with fluorescence, UV-Vis, ^1HNMR, CD and FTIR spectroscopies. […] From ispection of Fig. 1b, the typical emission spectrum of the 2-naphthyl group with three maxima at 325, 340 and 355 nm, respectively, can be detected.
(§2) The determination of CAC (critical aggregate concentration) values was determined as previously described[6] by the titration of the fluorescent probe ANS (8-anilino-1-naphthalene sulfonic acid ammonium salt)[28], [29] with the peptide conjugates[30].
A short description of data set [2]: Critical aggregation concentration (CAC) by ANS fluorescence titration. The following applies: ANS 20 μM titrated with conjugate, emission at 470 nm, graphical break-point (Figure S3). It counts as physicochemical.
Procedure: as §1, §2
Data set [3] in a line: Congo Red spectroscopic (UV-Vis) assay for amyloid-like fibrils. In kind it is physicochemical. The following applies: 30 min at room temperature. On the procedure: The high tendency of Gd-2Nal2 to self-aggregate in amyloid-like fibrillary nanostructures in solution was confirmed by Congo Red (CR) staining assay. CR is a well-known azoic dye, used as indicator of the occurrence of amyloid like fibrils. […] When incubated with fibrillary aggregates, its spectral profile changes and a shift of the CR band from 490 to 540 nm is expected. In our experiment, depicted in Fig. 3b, CR UV-Vis maximum undergoes a clear shift after incubation with Gd-2Nal2 at 2.5 mg/mL. Instead, any variation or a slight shift can be evidenced for CR incubated with 0.1 and 1.0 mg/mL, respectively.
Congo Red (CR) UV-Vis assay was carried out on aforementioned spectrophotometer as previously described. Briefly, 5, 50 and 125 μL of di-naphthylalanine stock solution (20 mg/mL) were added to a CR solution (12, 5 μM) prepared immediately before to use. The solutions containing peptide conjugate incubated with CR were left at room temperature for 30 min and then their UV-Vis spectra were recorded between 400 and 700 nm. The spectrum of CR alone at the same concentration was also recorded in the this spectral region.

A short description of data set [4]: Transmission electron microscopy of self-assembled conjugates. It counts as physicochemical. To be noted: 5.0 mg/mL solution dried on grid, phosphotungstic acid stain.
Procedure: Self-assembled peptide conjugate at 5.0 mg/mL, as free base or as metal complex, was initially characterized using TEM. […] The presence of a diffraction pattern both in SAXS and in WAXS is fingerprint of a hierarchical organization of the molecules in fibers from the atomic to the nanoscale.
TEM images were acquired by LaMest (Pozzuoli, Italy) with a FEI TECNAI G12 Spirit-Twin microscope (LaB6 source) endowed of a bottom mounted FEI Eagle-4k CCD camera (Eindhoven, The Netherlands), working at 120 kV.
A short description of data set [5]: Water proton relaxation measurements / NMRD profiles. It counts as physicochemical. To be noted: 298 K. The text has this: The paramagnetic relaxivity (r1p) of Gd (III) complexes is given by:1 r1p∝1/T1MH=Kf(τR) where K is a constant related to the strength of the dipolar interaction between the protons and the electronic magnetic moment, and τR is the correlation time associated with the reorientation of the Gd-H magnetic vector. This means that slowly moving high molecular weight systems are endowed with higher relaxivity than rapidly reorienting low molecular weight ones. In the case of self assembling Gd-containing systems, the extent of aggregation may be evaluated through the measure of the water proton longitudinal relaxation rate of its aqueous solution. In Fig. 8 are reported the NMRD (Nuclear Magnetic Resonance Dispersion) profiles of Gd-2Nal2 acquired at 21.5 MHz (0.5 T) and 298 K as a function of the complex concentration. […] At concentrations higher than 10–15 mg/mL the relaxivity assumes an almost stable value which corresponds to the system in the completely aggregated form. By analyzing the profile of the relaxivity data as a function of the applied field strength (NMRD - Nuclear Magnetic Relaxation Dispersion) it is possible to obtain an accurate determination of the reorientational correlation time (τR)[16], that is strictly related to the molecular size of the investigated system. NMRD profiles were acquired below (black circles) and above (white ones) the CAC values determined by ANS titration and ^1HNMR. […] Data were analyzed using the Solomon-Bloembergen-Morgan model, [18], considering one water molecule in the inner coordination sphere (q = 1) and fixing the exchange lifetime (τM) to a reliable value ([…]) on the basis of those previously reported for mono-amido DOTA derivatives[19]–[22]. The quantitative analysis of the NMRD profile of the aggregated form was not satisfactory when the simple inner- outer-sphere model was used, so the Lipari-Szabo approach was used for the description of the rotational dynamics. This model allows one to take into account the presence ofa certain degree of internal rotation superimposed on the overall tumbling motion, [24]. These two types ofmotion, a relatively fast local rotation of the coordination cage about the linker to the peptide scaffold superimposed on the global reorientation of the system, are characterized by different correlation times: τR ^l and τR ^g, respectively. The degree of correlation between global and local rotations is given by the parameter S^2, which takes values between 0 (completely independent motions) and 1 (entirely correlated motions).
Measure of R1 (longitudinal water proton relaxation rates) of Gd-2Nal2 were carried out on a Stelar Spinmaster spectrometer (Pavia, Italy) operating at 0.5 T which corresponds to 21.5 MHz Proton Larmor Frequency. R1 (1/T1) values were measured at 298 K by mean of the standard inversion-recovery technique. For the measure of the proton 1/T1 NMRD (Nuclear Magnetic Resonance Dispersion) profiles, a fast field-cycling Stelar relaxometer, operating over a continuum of magnetic field strengths from 0.00024 to 0.47 T (corresponding to 0.01–20 MHz proton Larmor frequencies) was used. The temperature was set at 298 K. The relaxometer is computer controlled and the absolute uncertainty is 1/T1 ± 1%. Additional data points were obtained on a Stelar Spinmaster spectrometer coupled to an electromagnet tunable at different Larmor Frequencies between 21.5 and 70 MHz. Experimental temperature control was obtained with an air-flow heater (Stelar VTC-91) endowed of a copper constantan thermocouple (uncertainty 0.1 °C). A previously reported relaxometric method[39] was used for the determination of the concentrations of the solutions used for the relaxometric characterization. The conventional Solomon-Bloembergen-Morgan theory was used for fitting of experimental data.

A short description of data set [6]: Doxorubicin loading and leakage by fluorescence spectroscopy. In kind it is physicochemical. The text has this:
In order to prepare a potential theranostic agent, we assayed to incorporate cytotoxic doxorubicin (DOX) model drug in the Gd-2Nal2 paramagnetic nanostructures. DOX is an established anticancer agent clinically effective for the treatment of many cancertypes (breast and ovarian cancers). The incorporation and release of DOX into nanostructures was estimated by fluorescence spectroscopy (Figures S7 and S8). The addition of increasing amounts of the peptide conjugate to the DOX solution causes a progressive decrease of the fluorescence intensity of DOX (Figure S7a). […] By plotting the fluorescence intensity in the maximum at 590 nm as function of the Gd-2Nal2 concentration (Figure S7b) we estimated that gDrug/gPeptide is 0.028 (∼60 μg of DOX for ∼2.0 mg of peptide). […]
A DOX solution (1 · 10^−4 M) was placed in the cuvette and titrated with small amount of Gd-2Nal2 peptide conjugate at 50 mg/mL. The fluorescence of each sample was monitored on Jasco Model FP-750 spectroflurophotometer as above described. […] At the end of the titration the DOX filled Gd-2Nal2 aggregates were 10-fold diluted and the DOX fluorescence was monitored up to 72 h. […]
Figure S7: A) Fluorescence spectra of 1·10^-4 M DOX (58 μg/mL) solution alone and after the addition of growing amounts of Gd-2Nal2 peptide conjugate (from 0.25 to 10.0 mg/mL). […]

The conditions of data set [7]: water.
For data set [8] the following is noted: water, temperature below 5 °C.

The source of these data is article PMC5428233, “Cross-beta nanostructures based on dinaphthylalanine Gd-conjugates loaded with doxorubicin” (Scientific Reports, 2017).

Where a SMILES comes first, the peptide text is derived from it. [ ]: non-standard residue; d: D form. The star is where a group is joined. DOTA = O=C(O)CN1CCN(CC(=O)O)CCN(CC(=O)*)CCN(CC(=O)O)CC1; 2Nal = N[C@@H](Cc1ccc2ccccc2c1)C(=O)O; PEG6 = NCCOCCOCCOCCOCCOCCOCCC(=O)O

As to `NC(=O)[C@H](Cc1ccc2ccccc2c1)NC(=O)[C@H](Cc1ccc2ccccc2c1)NC(=O)CCOCCOCCOCCOCCOCCOCCNC(=O)CN1CCN(CC(=O)O)CCN(CC(=O)O)CCN(CC(=O)O)CC1` [Gd-2Nal2, Gd-DOTA-L6-(2Nal)2] ({DOTA-PEG6}-[2Nal]-[2Nal]-NH2), the “concentration at which self-aggregation begins (decrease of fluorescence intensity)” value is around 75 µM in data set [1] and around 100 µg/mL in data set [1] (0.025-20.0 mg/mL range). Besides, the “concentration of appearance of the excimer peak (380-430 nm) / formation of stable aggregates” value in data set [1] is around 1000 µg/mL. Also, the “critical aggregation concentration (CAC)” value in data set [2] is given as around 0.86 mg/mL. The “shift of Congo Red UV-Vis maximum (490 to 540 nm expected for fibrils)” value in data set [3] (conjugate at 1.0 mg/mL) is reported as “slight shift”; in data set [3] (conjugate at 2.5 mg/mL), “clear shift”. For the same compound, in data set [4], the “supramolecular aggregation / morphology in TEM images” value is recorded as “long fibrillary nanostructures”. The “aggregation state from NMRD profile and τR” value in data set [5] (1 mg/mL) was “monomeric state”; in data set [5] (25.0 mg/mL (high concentration)) it was “formation of aggregates”. The “concentration above which relaxivity assumes an almost stable value (completely aggregated form)” value in data set [5] (21.5 MHz (0.5 T), water) was 10000 to 15000 µg/mL. Also, the “concentration at which self-aggregation starts (enhancement in relaxivity)” value in data set [5] (21.5 MHz (0.5 T), water) is on record as “ca. 1.0 mg/mL”. Moreover, the “r1p (longitudinal proton relaxivity)” value in data set [5] (complex at 1 mg/mL, aqueous solution) is 7.3 mM⁻¹ s⁻¹. In data set [6] (DOX 1·10^−4 M titrated with Gd-2Nal2 (50 mg/mL stock), fluorescence at 590 nm, excitation 480 nm), the “doxorubicin loading, gDrug/gPeptide” value was 0.028. Moreover, in data set [6] (DOX filled aggregates 10-fold diluted, fluorescence monitored, after 72 h), the “DOX leakage (drug released) from the peptide aggregate” value is given as around 6%. In data set [7], this compound had a solubility of at least 50 mg/mL. Moreover, the “concentration at which fast hydrogel formation occurs” value in data set [8] was 20000 µg/mL.
